# Experimental data taken from the supplement of paper PMC6757056.
# ± gives the standard deviation of the averaged measurements.
# B1: library; a variant is named by its letters at N, in order (parent)
# chain: GCUGUCACCGAGAAACUGUGAAGUAUAUCUUAAACCUGGGCACUUAAAAGAUAUAUGGAGUUAGUAGUGCAACCUGCUCGGUCUGAUGAGUCCNNNNNNGGACGAAACAGC
# Key:
# cyclic di-GMP [1] = variants of: B1; assay: normalized RNA/DNA level without ligand (relative to sTRSVctl = 100) (log10 (% of sTRSVctl)); HEK293T; ligand: cyclic di-GMP (c-di-GMP-II aptamer); higher = less ribozyme self-cleavage, higher mRNA level; conditions: reporter: mCherry (pCS4076), ligand present: no
# Method in brief: (§1)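 Total RNA, extracted with EDTA 72 h after HEK293T cells were transfected with 4 µg per 6-well well of reporter-linked ribozyme switch library plasmids, was reverse-transcribed, amplified, barcoded and sequenced. Ligand, if used, was added 1 h before transfection. RNA level was derived from RNA reads divided by DNA reads and normalized to a spiked-in non-cleaving sequence or to the top sequences. This was multiplied by 100 and log10-transformed, with the top set of 25 sequences and a ≥100 DNA read minimum.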
# cyclic di-GMP [2] = variants of: B1; assay: normalized RNA/DNA level with ligand (relative to sTRSVctl = 100) (log10 (% of sTRSVctl)); HEK293T; ligand: cyclic di-GMP (c-di-GMP-II aptamer); ligand concentration (+) RNA-Seq: 1 mM; higher = less ribozyme self-cleavage, higher mRNA level; conditions: reporter: mCherry (pCS4076), ligand present: yes
# Method in brief: as §1
Variant,normalized RNA/DNA level without ligand (log10) (cyclic di-GMP [1]),normalized RNA/DNA level with ligand (log10) (cyclic di-GMP [2])
UAUUGU,1.67 ± 0.034,1.81 ± 0.11
UAUUGA,1.6713 ± 0.00062,1.83 ± 0.1
UAUUGC,1.76 ± 0.025,1.87 ± 0.088
UAUUGG,1.75 ± 0.061,1.87 ± 0.076
UAUCGG,1.743 ± 0.0093,1.84 ± 0.11
UAUCGA,1.609 ± 0.0048,1.79 ± 0.12
UAUCGU,1.67 ± 0.02,1.79 ± 0.095
UAUCGC,1.76 ± 0.019,1.83 ± 0.15
AAUGUC,1.68 ± 0.03,1.84 ± 0.11
AAUGUA,1.525 ± 0.01,1.64 ± 0.16
GCAAAA,1.35 ± 0.18,1.59 ± 0.078
ACAACC,1.67 ± 0.02,1.82 ± 0.1
ACAACA,1.46 ± 0.076,1.68 ± 0.099
ACAACG,1.46 ± 0.1,1.65 ± 0.12
GAUGAU,1.56 ± 0.064,1.75 ± 0.099
GAUGAC,1.65 ± 0.019,1.82 ± 0.12
GAUGAG,1.55 ± 0.067,1.71 ± 0.059
GAUGAA,1.45 ± 0.1,1.65 ± 0.067
GAUCGU,1.65 ± 0.046,1.81 ± 0.087
GAUCGG,1.747 ± 0.013,1.82 ± 0.034
GAUCGC,1.74 ± 0.019,1.86 ± 0.051
GCACGG,1.55 ± 0.053,1.66 ± 0.12
GCACGC,1.66 ± 0.027,1.78 ± 0.2

Variant,normalized RNA/DNA level without ligand (log10) (cyclic di-GMP [1]),normalized RNA/DNA level with ligand (log10) (cyclic di-GMP [2])
GCACGU,1.49 ± 0.07,1.7 ± 0.12
UAUUUA,1.707 ± 0.0067,1.84 ± 0.12
UAUUUU,1.73 ± 0.062,1.84 ± 0.13
UAUUUG,1.732 ± 0.0073,1.86 ± 0.1
UAUUUC,1.75 ± 0.0095,1.87 ± 0.1
CAUUCU,1.55 ± 0.07,1.73 ± 0.12
CAUUCG,1.83 ± 0.091,1.95 ± 0.14
CAUUCA,1.38 ± 0.087,1.56 ± 0.12
CAUUCC,1.781 ± 0.0028,1.87 ± 0.041
GAUGUU,1.62 ± 0.037,1.78 ± 0.086
GAUGUC,1.7082 ± 0.001,1.87 ± 0.12
GAUGUG,1.71 ± 0.032,1.8 ± 0.1
GAUCCG,1.88 ± 0.068,1.95 ± 0.15
GAUCCA,1.71 ± 0.032,1.85 ± 0.1
GAUCCC,1.79 ± 0.027,1.89 ± 0.082
GAUCCU,1.7 ± 0.025,1.84 ± 0.13
UAUAUU,1.68 ± 0.043,1.86 ± 0.12
CAUCAG,1.69 ± 0.044,1.76 ± 0.13
CAUCAU,1.56 ± 0.064,1.72 ± 0.072
CAUCAC,1.67 ± 0.027,1.8 ± 0.069
AAUUAU,1.67 ± 0.03,1.82 ± 0.1
AAUUAC,1.72 ± 0.068,1.83 ± 0.099
AAUUAG,1.6 ± 0.029,1.76 ± 0.11

Variant,normalized RNA/DNA level without ligand (log10) (cyclic di-GMP [1]),normalized RNA/DNA level with ligand (log10) (cyclic di-GMP [2])
GAUUAC,1.722 ± 0.0096,1.83 ± 0.081
GAUUAG,1.68 ± 0.046,1.8 ± 0.089
GAUUAU,1.62 ± 0.022,1.77 ± 0.07
UCACAU,1.58 ± 0.048,1.78 ± 0.087
UCACAA,1.547 ± 0.011,1.72 ± 0.087
UCACAG,1.667 ± 0.0019,1.83 ± 0.083
UCACAC,1.7 ± 0.0024,1.81 ± 0.13
CAUUUC,1.67 ± 0.022,1.82 ± 0.14
CAUUUG,1.75 ± 0.062,1.91 ± 0.095
CAUUUU,1.535 ± 0.0069,1.76 ± 0.16
UAUGCA,1.77 ± 0.061,1.87 ± 0.16
UAUGCU,1.72 ± 0.043,1.86 ± 0.11
UAUGCC,1.81 ± 0.042,1.91 ± 0.15
UAUGCG,1.78 ± 0.029,1.86 ± 0.1
CAUGCA,1.52 ± 0.05,1.66 ± 0.067
CAUGCU,1.72 ± 0.056,1.84 ± 0.097
CAUGCC,1.79 ± 0.029,1.89 ± 0.15
CAUGCG,1.81 ± 0.029,1.9 ± 0.14
CCAAAG,1.41 ± 0.056,1.61 ± 0.1
CCAAAA,1.35 ± 0.091,1.62 ± 0.079
GCACCA,1.586 ± 0.0036,1.75 ± 0.11
GCACCG,1.72 ± 0.037,1.86 ± 0.11
GCACCU,1.6643 ± 0.00076,1.85 ± 0.14

Variant,normalized RNA/DNA level without ligand (log10) (cyclic di-GMP [1]),normalized RNA/DNA level with ligand (log10) (cyclic di-GMP [2])
GCACCC,1.66 ± 0.027,1.84 ± 0.075
UAUUCA,1.8 ± 0.032,1.88 ± 0.053
UAUUCG,1.756 ± 0.0047,1.87 ± 0.13
UAUUCC,1.77 ± 0.029,1.88 ± 0.12
GAUAUU,1.61 ± 0.019,1.8 ± 0.13
AAUGGU,1.62 ± 0.048,1.76 ± 0.1
CAUUGA,1.602 ± 0.0057,1.76 ± 0.13
CAUUGG,1.804 ± 0.0056,1.93 ± 0.15
CAUUGU,1.78 ± 0.023,1.88 ± 0.046
CAUUGC,1.78 ± 0.056,1.85 ± 0.15
CCAACA,1.53 ± 0.029,1.72 ± 0.13
CCAACU,1.56 ± 0.0039,1.75 ± 0.15
CCAACG,1.71 ± 0.049,1.85 ± 0.1
AAUCGC,1.74 ± 0.018,1.89 ± 0.12
AAUCGA,1.49 ± 0.07,1.69 ± 0.094
AAUCGU,1.65 ± 0.038,1.81 ± 0.11
AAUCGG,1.6 ± 0.048,1.76 ± 0.12
UAUUAG,1.73 ± 0.042,1.87 ± 0.068
UAUUAU,1.682 ± 0.011,1.82 ± 0.14
GCACAG,1.58 ± 0.061,1.71 ± 0.14
AAUCCC,1.77 ± 0.032,1.86 ± 0.087
AAUCCU,1.73 ± 0.073,1.86 ± 0.11
AAUCCG,1.83 ± 0.037,1.93 ± 0.028

Variant,normalized RNA/DNA level without ligand (log10) (cyclic di-GMP [1]),normalized RNA/DNA level with ligand (log10) (cyclic di-GMP [2])
AAUCCA,1.65 ± 0.025,1.79 ± 0.088
AAUCUA,1.55 ± 0.055,1.75 ± 0.071
AAUCUC,1.74 ± 0.032,1.86 ± 0.075
AAUCUU,1.74 ± 0.09,1.86 ± 0.1
AAUCUG,1.62 ± 0.031,1.8 ± 0.061
UCACGG,1.82 ± 0.07,1.9 ± 0.1
UCACGC,1.7 ± 0.045,1.84 ± 0.08
ACACAA,1.41 ± 0.056,1.66 ± 0.16
ACACAU,1.46 ± 0.06,1.67 ± 0.092
ACACAC,1.633 ± 0.0097,1.81 ± 0.09
CCAAGG,1.688 ± 0.013,1.8 ± 0.1
CCAAGC,1.59 ± 0.059,1.76 ± 0.13
UCAAGC,1.63 ± 0.031,1.76 ± 0.1
UCAAGG,1.8 ± 0.067,1.89 ± 0.12
UCAAGA,1.52 ± 0.0098,1.74 ± 0.098
UCAAGU,1.52 ± 0.048,1.73 ± 0.1
CAUGGC,1.715 ± 0.005,1.84 ± 0.09
CAUGGU,1.648 ± 0.0024,1.77 ± 0.16
CAUGGG,1.682 ± 0.0032,1.84 ± 0.094
UCAAAG,1.602 ± 0.012,1.77 ± 0.12
UCAAAU,1.5 ± 0.063,1.71 ± 0.092
UCAAAC,1.63 ± 0.026,1.8 ± 0.079
UAUCAA,1.7 ± 0.031,1.83 ± 0.11
